From the MegaScale stability set (Tsuboyama et al. 2023)

B1: HEEH_KT_rd6_0790 (parent)
chain: SEEEEEEWRRAKERGEEIIILGILWKPNDEEAERRIKEALRRV

Variants of: B1
Assay: folding stability dG (cDNA display proteolysis); higher = more stable
Details: PBS, room temperature

Row | Variant | folding stability dG [kcal/mol]
1 | SEEEEEAWRRAKERGEEIIILGILWKPNDEEAERRIKEALRRV | 2.78
2 | SEEEEECWRRAKERGEEIIILGILWKPNDEEAERRIKEALRRV | 2.59
3 | SEEEEEDWRRAKERGEEIIILGILWKPNDEEAERRIKEALRRV | 1.99
4 | SEEEEEFWRRAKERGEEIIILGILWKPNDEEAERRIKEALRRV | 2.91
5 | SEEEEEGWRRAKERGEEIIILGILWKPNDEEAERRIKEALRRV | 1.81
6 | SEEEEEHWRRAKERGEEIIILGILWKPNDEEAERRIKEALRRV | 2.14
7 | SEEEEEIWRRAKERGEEIIILGILWKPNDEEAERRIKEALRRV | 2.36
8 | SEEEEEKWRRAKERGEEIIILGILWKPNDEEAERRIKEALRRV | 2.9
9 | SEEEEELWRRAKERGEEIIILGILWKPNDEEAERRIKEALRRV | 2.65
10 | SEEEEEMWRRAKERGEEIIILGILWKPNDEEAERRIKEALRRV | 2.62
11 | SEEEEENWRRAKERGEEIIILGILWKPNDEEAERRIKEALRRV | 2.54
12 | SEEEEEPWRRAKERGEEIIILGILWKPNDEEAERRIKEALRRV | 1.32
13 | SEEEEEQWRRAKERGEEIIILGILWKPNDEEAERRIKEALRRV | 2.44
14 | SEEEEERWRRAKERGEEIIILGILWKPNDEEAERRIKEALRRV | 2.97
15 | SEEEEESWRRAKERGEEIIILGILWKPNDEEAERRIKEALRRV | 2.31
16 | SEEEEETWRRAKERGEEIIILGILWKPNDEEAERRIKEALRRV | 2
17 | SEEEEEVWRRAKERGEEIIILGILWKPNDEEAERRIKEALRRV | 2.09
18 | SEEEEEWWRRAKERGEEIIILGILWKPNDEEAERRIKEALRRV | 2.86
19 | SEEEEEYWRRAKERGEEIIILGILWKPNDEEAERRIKEALRRV | 2.19
20 | SEEEEEEARRAKERGEEIIILGILWKPNDEEAERRIKEALRRV | 0.975
21 | SEEEEEECRRAKERGEEIIILGILWKPNDEEAERRIKEALRRV | 1.67
22 | SEEEEEEDRRAKERGEEIIILGILWKPNDEEAERRIKEALRRV | 0.922
23 | SEEEEEEERRAKERGEEIIILGILWKPNDEEAERRIKEALRRV | 0.744
24 | SEEEEEEFRRAKERGEEIIILGILWKPNDEEAERRIKEALRRV | 2.31

Row | Variant | folding stability dG [kcal/mol]
25 | SEEEEEEGRRAKERGEEIIILGILWKPNDEEAERRIKEALRRV | 0.818
26 | SEEEEEEHRRAKERGEEIIILGILWKPNDEEAERRIKEALRRV | 0.824
27 | SEEEEEEIRRAKERGEEIIILGILWKPNDEEAERRIKEALRRV | 1.48
28 | SEEEEEEKRRAKERGEEIIILGILWKPNDEEAERRIKEALRRV | 0.821
29 | SEEEEEELRRAKERGEEIIILGILWKPNDEEAERRIKEALRRV | 1.95
30 | SEEEEEEMRRAKERGEEIIILGILWKPNDEEAERRIKEALRRV | 1.34
31 | SEEEEEENRRAKERGEEIIILGILWKPNDEEAERRIKEALRRV | 0.676
32 | SEEEEEEPRRAKERGEEIIILGILWKPNDEEAERRIKEALRRV | 1
33 | SEEEEEEQRRAKERGEEIIILGILWKPNDEEAERRIKEALRRV | 0.919
34 | SEEEEEERRRAKERGEEIIILGILWKPNDEEAERRIKEALRRV | 0.881
35 | SEEEEEESRRAKERGEEIIILGILWKPNDEEAERRIKEALRRV | 0.793
36 | SEEEEEETRRAKERGEEIIILGILWKPNDEEAERRIKEALRRV | 0.835
37 | SEEEEEEVRRAKERGEEIIILGILWKPNDEEAERRIKEALRRV | 1.12
38 | SEEEEEEYRRAKERGEEIIILGILWKPNDEEAERRIKEALRRV | 1.72
39 | SEEEEEEWARAKERGEEIIILGILWKPNDEEAERRIKEALRRV | 1.91
40 | SEEEEEEWCRAKERGEEIIILGILWKPNDEEAERRIKEALRRV | 1.75
41 | SEEEEEEWDRAKERGEEIIILGILWKPNDEEAERRIKEALRRV | 1.36
42 | SEEEEEEWERAKERGEEIIILGILWKPNDEEAERRIKEALRRV | 1.94
43 | SEEEEEEWFRAKERGEEIIILGILWKPNDEEAERRIKEALRRV | 1.85
44 | SEEEEEEWGRAKERGEEIIILGILWKPNDEEAERRIKEALRRV | 1.31
45 | SEEEEEEWHRAKERGEEIIILGILWKPNDEEAERRIKEALRRV | 1.83
46 | SEEEEEEWIRAKERGEEIIILGILWKPNDEEAERRIKEALRRV | 1.94
47 | SEEEEEEWKRAKERGEEIIILGILWKPNDEEAERRIKEALRRV | 1.96
48 | SEEEEEEWLRAKERGEEIIILGILWKPNDEEAERRIKEALRRV | 2.11

Row | Variant | folding stability dG [kcal/mol]
49 | SEEEEEEWMRAKERGEEIIILGILWKPNDEEAERRIKEALRRV | 1.9
50 | SEEEEEEWNRAKERGEEIIILGILWKPNDEEAERRIKEALRRV | 1.85
51 | SEEEEEEWPRAKERGEEIIILGILWKPNDEEAERRIKEALRRV | 0.985
52 | SEEEEEEWQRAKERGEEIIILGILWKPNDEEAERRIKEALRRV | 1.96
53 | SEEEEEEWSRAKERGEEIIILGILWKPNDEEAERRIKEALRRV | 1.62
54 | SEEEEEEWTRAKERGEEIIILGILWKPNDEEAERRIKEALRRV | 1.74
55 | SEEEEEEWVRAKERGEEIIILGILWKPNDEEAERRIKEALRRV | 1.75
56 | SEEEEEEWWRAKERGEEIIILGILWKPNDEEAERRIKEALRRV | 1.92
57 | SEEEEEEWYRAKERGEEIIILGILWKPNDEEAERRIKEALRRV | 1.95
58 | SEEEEEEWRAAKERGEEIIILGILWKPNDEEAERRIKEALRRV | 1.82
59 | SEEEEEEWRCAKERGEEIIILGILWKPNDEEAERRIKEALRRV | 2.25
60 | SEEEEEEWRDAKERGEEIIILGILWKPNDEEAERRIKEALRRV | 1.2
61 | SEEEEEEWREAKERGEEIIILGILWKPNDEEAERRIKEALRRV | 1.33
62 | SEEEEEEWRFAKERGEEIIILGILWKPNDEEAERRIKEALRRV | 1.56
63 | SEEEEEEWRGAKERGEEIIILGILWKPNDEEAERRIKEALRRV | 1.56
64 | SEEEEEEWRHAKERGEEIIILGILWKPNDEEAERRIKEALRRV | 1.76
65 | SEEEEEEWRIAKERGEEIIILGILWKPNDEEAERRIKEALRRV | 1.8
66 | SEEEEEEWRKAKERGEEIIILGILWKPNDEEAERRIKEALRRV | 2.04
67 | SEEEEEEWRLAKERGEEIIILGILWKPNDEEAERRIKEALRRV | 1.82
68 | SEEEEEEWRMAKERGEEIIILGILWKPNDEEAERRIKEALRRV | 1.86
69 | SEEEEEEWRNAKERGEEIIILGILWKPNDEEAERRIKEALRRV | 1.69
70 | SEEEEEEWRPAKERGEEIIILGILWKPNDEEAERRIKEALRRV | 0.8
71 | SEEEEEEWRQAKERGEEIIILGILWKPNDEEAERRIKEALRRV | 1.81
72 | SEEEEEEWRSAKERGEEIIILGILWKPNDEEAERRIKEALRRV | 1.5

Row | Variant | folding stability dG [kcal/mol]
73 | SEEEEEEWRTAKERGEEIIILGILWKPNDEEAERRIKEALRRV | 1.55
74 | SEEEEEEWRVAKERGEEIIILGILWKPNDEEAERRIKEALRRV | 1.72
75 | SEEEEEEWRWAKERGEEIIILGILWKPNDEEAERRIKEALRRV | 1.77
76 | SEEEEEEWRYAKERGEEIIILGILWKPNDEEAERRIKEALRRV | 1.69
77 | SEEEEEEWRRDKERGEEIIILGILWKPNDEEAERRIKEALRRV | 0.949
78 | SEEEEEEWRREKERGEEIIILGILWKPNDEEAERRIKEALRRV | 1.05
79 | SEEEEEEWRRFKERGEEIIILGILWKPNDEEAERRIKEALRRV | 1.89
80 | SEEEEEEWRRGKERGEEIIILGILWKPNDEEAERRIKEALRRV | 1.22
81 | SEEEEEEWRRHKERGEEIIILGILWKPNDEEAERRIKEALRRV | 1.6
82 | SEEEEEEWRRIKERGEEIIILGILWKPNDEEAERRIKEALRRV | 2.52
83 | SEEEEEEWRRKKERGEEIIILGILWKPNDEEAERRIKEALRRV | 1.37
84 | SEEEEEEWRRLKERGEEIIILGILWKPNDEEAERRIKEALRRV | 2.14
85 | SEEEEEEWRRMKERGEEIIILGILWKPNDEEAERRIKEALRRV | 1.94
86 | SEEEEEEWRRNKERGEEIIILGILWKPNDEEAERRIKEALRRV | 1.28
87 | SEEEEEEWRRPKERGEEIIILGILWKPNDEEAERRIKEALRRV | 1.03
88 | SEEEEEEWRRQKERGEEIIILGILWKPNDEEAERRIKEALRRV | 1.2
89 | SEEEEEEWRRRKERGEEIIILGILWKPNDEEAERRIKEALRRV | 1.62
90 | SEEEEEEWRRSKERGEEIIILGILWKPNDEEAERRIKEALRRV | 1.65
91 | SEEEEEEWRRTKERGEEIIILGILWKPNDEEAERRIKEALRRV | 1.26
92 | SEEEEEEWRRVKERGEEIIILGILWKPNDEEAERRIKEALRRV | 1.75
93 | SEEEEEEWRRWKERGEEIIILGILWKPNDEEAERRIKEALRRV | 2.05
94 | SEEEEEEWRRYKERGEEIIILGILWKPNDEEAERRIKEALRRV | 1.95
95 | SEEEEEEWRRAAERGEEIIILGILWKPNDEEAERRIKEALRRV | 1.59
96 | SEEEEEEWRRACERGEEIIILGILWKPNDEEAERRIKEALRRV | 2.01

Row | Variant | folding stability dG [kcal/mol]
97 | SEEEEEEWRRADERGEEIIILGILWKPNDEEAERRIKEALRRV | 1.06
98 | SEEEEEEWRRAEERGEEIIILGILWKPNDEEAERRIKEALRRV | 0.988
99 | SEEEEEEWRRAFERGEEIIILGILWKPNDEEAERRIKEALRRV | 2.13
100 | SEEEEEEWRRAGERGEEIIILGILWKPNDEEAERRIKEALRRV | 1.07
101 | SEEEEEEWRRAHERGEEIIILGILWKPNDEEAERRIKEALRRV | 1.96
102 | SEEEEEEWRRAIERGEEIIILGILWKPNDEEAERRIKEALRRV | 1.97
103 | SEEEEEEWRRALERGEEIIILGILWKPNDEEAERRIKEALRRV | 1.86
104 | SEEEEEEWRRAMERGEEIIILGILWKPNDEEAERRIKEALRRV | 2.37
105 | SEEEEEEWRRANERGEEIIILGILWKPNDEEAERRIKEALRRV | 1.3
106 | SEEEEEEWRRAPERGEEIIILGILWKPNDEEAERRIKEALRRV | 1.02
107 | SEEEEEEWRRAQERGEEIIILGILWKPNDEEAERRIKEALRRV | 1.9
108 | SEEEEEEWRRARERGEEIIILGILWKPNDEEAERRIKEALRRV | 2.07
109 | SEEEEEEWRRASERGEEIIILGILWKPNDEEAERRIKEALRRV | 1.44
110 | SEEEEEEWRRATERGEEIIILGILWKPNDEEAERRIKEALRRV | 1.59
111 | SEEEEEEWRRAVERGEEIIILGILWKPNDEEAERRIKEALRRV | 1.89
112 | SEEEEEEWRRAWERGEEIIILGILWKPNDEEAERRIKEALRRV | 2.43
113 | SEEEEEEWRRAYERGEEIIILGILWKPNDEEAERRIKEALRRV | 2.2
114 | SEEEEEEWRRAKARGEEIIILGILWKPNDEEAERRIKEALRRV | 2.22
115 | SEEEEEEWRRAKDRGEEIIILGILWKPNDEEAERRIKEALRRV | 1.93
116 | SEEEEEEWRRAKFRGEEIIILGILWKPNDEEAERRIKEALRRV | 1.77
117 | SEEEEEEWRRAKGRGEEIIILGILWKPNDEEAERRIKEALRRV | 1.49
118 | SEEEEEEWRRAKHRGEEIIILGILWKPNDEEAERRIKEALRRV | 1.68
